We go through 66 substances from the array DNA melting data of Ke et al..

For orientation: Tm means the temperature at which the thermal transition is half complete.

The data set is described as follows: melting temperature; melt of duplexes. Particulars: sodium 0.0675 M; strand 1 µM.
For “CGACGTGCAGTATGTGCTG+CAGCACATTGTGCACGTCG (((((((((..((((((((+))))))))..)))))))))”, the midpoint of thermal melting (Tm) came out at 48.6 °C. To “CGACGTGCGTAATGTGCTG+CAGCACATCAAGCACGTCG ((((((((.(.((((((((+)))))))).).))))))))” belongs 53.4 °C. To “CGACGTGCATAATGTGCTG+CAGCACATAGTGCACGTCG (((((((((..((((((((+))))))))..)))))))))” belongs 48.7 °C. To “CGACGTGCGGGATGTGCTG+CAGCACATTACGCACGTCG (((((((((..((((((((+))))))))..)))))))))” belongs 58 °C.

For “CGACGTGCGGGATGTGCTG+CAGCACATATAGCACGTCG ((((((((...((((((((+))))))))...))))))))”, the Tm is 52.8 °C.

For “CGACGTGCGAAATGTGCTG+CAGCACATAGAGCACGTCG ((((((((...((((((((+))))))))...))))))))”, the Tm was determined as 56.2 °C. With “CGACGTGCCAGATGTGCTG+CAGCACATGTGGCACGTCG ((((((((((.((((((((+)))))))).))))))))))”, the Tm was found to be 60 °C. To “CGACGTGCGATATGTGCTG+CAGCACATGGGGCACGTCG ((((((((...((((((((+))))))))...))))))))” belongs 51.3 °C; to “CGACGTGCTAAATGTGCTG+CAGCACATGTTGCACGTCG ((((((((.(.((((((((+)))))))).).))))))))”, 52.6 °C. To “CGACGTGCGTTATGTGCTG+CAGCACATACAGCACGTCG ((((((((..(((((((((+)))))))))..))))))))” belongs 53.3 °C. With “CGACGTGCGCCATGTGCTG+CAGCACATCGGGCACGTCG ((((((((.(.((((((((+)))))))).).))))))))”, the Tm was determined as 51.2 °C. To “CGACGTGCCGCATGTGCTG+CAGCACATCTTGCACGTCG ((((((((...((((((((+))))))))...))))))))” belongs 47.4 °C; to “CGACGTGCCCCATGTGCTG+CAGCACATCATGCACGTCG ((((((((...((((((((+))))))))...))))))))”, 46.5 °C. To “CGACGTGCTGTATGTGCTG+CAGCACATTCTGCACGTCG ((((((((.(.((((((((+)))))))).).))))))))” belongs 52 °C. On to “CGACGTGCGGGATGTGCTG+CAGCACATGCGGCACGTCG ((((((((.(.((((((((+)))))))).).))))))))”, for which the Tm came out at 55.4 °C. To “CGACGTGCGTGATGTGCTG+CAGCACATATCGCACGTCG (((((((((..((((((((+))))))))..)))))))))” belongs 54.6 °C. As to “CGACGTGCCATATGTGCTG+CAGCACATGTAGCACGTCG ((((((((.(.((((((((+)))))))).).))))))))”, the midpoint of thermal melting (Tm) worked out at 51.3 °C.

In the case of “CGACGTGCTTCATGTGCTG+CAGCACATGTGGCACGTCG ((((((((..(((((((((+)))))))))..))))))))”, the Tm came out at 54.8 °C. With “CGACGTGCCTAATGTGCTG+CAGCACATGGGGCACGTCG (((((((((..((((((((+))))))))..)))))))))”, the Tm came out at 56 °C. To “CGACGTGCCTAATGTGCTG+CAGCACATTTCGCACGTCG ((((((((..(((((((((+)))))))))..))))))))” belongs 50.5 °C; to “CGACGTGCGGAATGTGCTG+CAGCACATGTTGCACGTCG ((((((((...((((((((+))))))))...))))))))”, 52.8 °C. “CGACGTGCATTATGTGCTG+CAGCACATAGGGCACGTCG ((((((((..(((((((((+)))))))))..))))))))”: the Tm is 52 °C. Regarding “CGACGTGCTGGATGTGCTG+CAGCACATATAGCACGTCG (((((((((..((((((((+))))))))..)))))))))”, the Tm was 54.6 °C.

Take “CGACGTGCCGAATGTGCTG+CAGCACATGAGGCACGTCG (((((((((..((((((((+))))))))..)))))))))”: the melting temperature (Tm) turned out to be 63.8 °C. On to “CGACGTGCTCCATGTGCTG+CAGCACATTTGGCACGTCG ((((((((...((((((((+))))))))...))))))))”, for which the melting temperature (Tm) amounted to 48.3 °C. To “CGACGTGCGAAATGTGCTG+CAGCACATCAGGCACGTCG ((((((((...((((((((+))))))))...))))))))” belongs 49.7 °C; to “CGACGTGCGGGATGTGCTG+CAGCACATAGGGCACGTCG ((((((((...((((((((+))))))))...))))))))”, 50.1 °C. To “CGACGTGCTTCATGTGCTG+CAGCACATGGAGCACGTCG (((((((((.(((((((((+))))))))).)))))))))” belongs 60 °C; to “CGACGTGCTTGATGTGCTG+CAGCACATACTGCACGTCG ((((((((...((((((((+))))))))...))))))))”, 50.4 °C. Regarding “CGACGTGCTCGATGTGCTG+CAGCACATTCGGCACGTCG ((((((((...((((((((+))))))))...))))))))”, the Tm came out at 52.3 °C. To “CGACGTGCCCCATGTGCTG+CAGCACATTGCGCACGTCG ((((((((.(.((((((((+)))))))).).))))))))” belongs 48.2 °C.

With “CGACGTGCATGATGTGCTG+CAGCACATGCGGCACGTCG ((((((((...((((((((+))))))))...))))))))”, the midpoint of thermal melting (Tm) is 48 °C. To “CGACGTGCAACATGTGCTG+CAGCACATCTGGCACGTCG ((((((((.(.((((((((+)))))))).).))))))))” belongs 48.9 °C. Take “CGACGTGCATTATGTGCTG+CAGCACATCGGGCACGTCG ((((((((...((((((((+))))))))...))))))))”: the midpoint of thermal melting (Tm) worked out at 47 °C. To “CGACGTGCCTGATGTGCTG+CAGCACATGAGGCACGTCG ((((((((((.((((((((+)))))))).))))))))))” belongs 58.5 °C; to “CGACGTGCTCAATGTGCTG+CAGCACATTTAGCACGTCG (((((((((.(((((((((+))))))))).)))))))))”, 54.7 °C. Turning to “CGACGTGCCCCATGTGCTG+CAGCACATGATGCACGTCG ((((((((..(((((((((+)))))))))..))))))))”, the Tm came out at 51.8 °C. To “CGACGTGCACGATGTGCTG+CAGCACATCATGCACGTCG (((((((((.(((((((((+))))))))).)))))))))” belongs 55.3 °C; to “CGACGTGCTCTATGTGCTG+CAGCACATCATGCACGTCG ((((((((...((((((((+))))))))...))))))))”, 48.5 °C; to “CGACGTGCCCCATGTGCTG+CAGCACATCCTGCACGTCG ((((((((...((((((((+))))))))...))))))))”, 46.8 °C.

As to “CGACGTGCCATATGTGCTG+CAGCACATACCGCACGTCG ((((((((..(((((((((+)))))))))..))))))))”, the Tm amounted to 48.3 °C. To “CGACGTGCTACATGTGCTG+CAGCACATGAAGCACGTCG (((((((((.(((((((((+))))))))).)))))))))” belongs 58.3 °C; to “CGACGTGCCTTATGTGCTG+CAGCACATGCGGCACGTCG (((((((((..((((((((+))))))))..)))))))))”, 52.3 °C. To “CGACGTGCTTTATGTGCTG+CAGCACATATGGCACGTCG ((((((((..(((((((((+)))))))))..))))))))” belongs 51.6 °C; to “CGACGTGCCCCATGTGCTG+CAGCACATGCCGCACGTCG ((((((((..(((((((((+)))))))))..))))))))”, 50.3 °C; to “CGACGTGCTAGATGTGCTG+CAGCACATCTAGCACGTCG (((((((((((((((((((+)))))))))))))))))))”, 63.6 °C. To “CGACGTGCAGGATGTGCTG+CAGCACATAGAGCACGTCG ((((((((...((((((((+))))))))...))))))))” belongs 49.4 °C. As to “CGACGTGCGGAATGTGCTG+CAGCACATCCGGCACGTCG ((((((((.(.((((((((+)))))))).).))))))))”, the melting temperature (Tm) worked out at 55.7 °C. With “CGACGTGCAAAATGTGCTG+CAGCACATAAAGCACGTCG ((((((((...((((((((+))))))))...))))))))”, the midpoint of thermal melting (Tm) was 50.8 °C. To “CGACGTGCAATATGTGCTG+CAGCACATAATGCACGTCG (((((((((.(((((((((+))))))))).)))))))))” belongs 54.6 °C. Take “CGACGTGCTGTATGTGCTG+CAGCACATCTGGCACGTCG ((((((((...((((((((+))))))))...))))))))”: the Tm is 50.9 °C. To “CGACGTGCTTAATGTGCTG+CAGCACATGCAGCACGTCG (((((((((..((((((((+))))))))..)))))))))” belongs 52 °C.

“CGACGTGCATCATGTGCTG+CAGCACATACCGCACGTCG ((((((((...((((((((+))))))))...))))))))”: the melting temperature (Tm) turned out to be 46.6 °C.

Turning to “CGACGTGCGTTATGTGCTG+CAGCACATCGTGCACGTCG ((((((((...((((((((+))))))))...))))))))”, the Tm amounted to 44 °C. To “CGACGTGCTCTATGTGCTG+CAGCACATGACGCACGTCG ((((((((...((((((((+))))))))...))))))))” belongs 47 °C; to “CGACGTGCATGATGTGCTG+CAGCACATTCAGCACGTCG ((((((((...((((((((+))))))))...))))))))”, 51.1 °C; to “CGACGTGCTTAATGTGCTG+CAGCACATTTCGCACGTCG ((((((((..(((((((((+)))))))))..))))))))”, 51 °C. To “CGACGTGCTCCATGTGCTG+CAGCACATCGGGCACGTCG ((((((((.(.((((((((+)))))))).).))))))))” belongs 51.2 °C; to “CGACGTGCTTTATGTGCTG+CAGCACATACTGCACGTCG ((((((((..(((((((((+)))))))))..))))))))”, 50.3 °C; to “CGACGTGCTTTATGTGCTG+CAGCACATCTCGCACGTCG ((((((((...((((((((+))))))))...))))))))”, 46.5 °C. To “CGACGTGCATTATGTGCTG+CAGCACATTGAGCACGTCG ((((((((...((((((((+))))))))...))))))))” belongs 49.5 °C; to “CGACGTGCTCTATGTGCTG+CAGCACATTCGGCACGTCG ((((((((...((((((((+))))))))...))))))))”, 48.7 °C.

For the substance “CGACGTGCTTAATGTGCTG+CAGCACATCTGGCACGTCG ((((((((...((((((((+))))))))...))))))))”, the Tm amounted to 49.7 °C. “CGACGTGCCTAATGTGCTG+CAGCACATCTTGCACGTCG ((((((((...((((((((+))))))))...))))))))”: the melting temperature (Tm) was found to be 48 °C.

With “CGACGTGCCAAATGTGCTG+CAGCACATACTGCACGTCG ((((((((...((((((((+))))))))...))))))))”, the Tm is 47.4 °C. To “CGACGTGCGGTATGTGCTG+CAGCACATGCTGCACGTCG ((((((((.(.((((((((+)))))))).).))))))))” belongs 56.1 °C.
